Test results as given in publication PMC6317279.

Biological target: FLAG-tagged CRTC3 S391A (mouse) (UniProt Q91X84)
Sequence of UniProt Q91X84 (Q91X84 whole entry S391A): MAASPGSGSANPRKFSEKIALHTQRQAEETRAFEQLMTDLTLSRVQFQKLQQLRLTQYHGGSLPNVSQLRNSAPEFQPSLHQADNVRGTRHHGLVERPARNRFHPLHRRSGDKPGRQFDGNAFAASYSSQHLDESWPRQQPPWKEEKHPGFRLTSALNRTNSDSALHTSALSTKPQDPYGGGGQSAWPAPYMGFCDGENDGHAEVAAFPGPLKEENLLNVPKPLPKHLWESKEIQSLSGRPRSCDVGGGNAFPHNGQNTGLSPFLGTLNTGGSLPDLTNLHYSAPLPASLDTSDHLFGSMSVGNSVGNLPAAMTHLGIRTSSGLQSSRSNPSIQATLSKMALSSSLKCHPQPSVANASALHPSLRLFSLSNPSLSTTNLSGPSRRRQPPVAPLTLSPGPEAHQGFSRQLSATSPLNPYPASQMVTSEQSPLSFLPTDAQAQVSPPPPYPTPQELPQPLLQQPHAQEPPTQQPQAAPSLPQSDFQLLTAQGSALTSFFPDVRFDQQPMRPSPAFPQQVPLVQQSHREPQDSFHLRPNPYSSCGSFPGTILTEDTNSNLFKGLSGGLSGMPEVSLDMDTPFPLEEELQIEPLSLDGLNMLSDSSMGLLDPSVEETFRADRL

- transient CRE luciferase-based (EVX-Luc) reporter assay, basal transcriptional activity of S391A mutant CRTC3 against WT CRTC3: 2 fold lower
Substance: B55 PP2A holoenzyme (protein phosphatase 2A: catalytic, scaffold and 55-kDa regulatory B subunits) (from UniProt P67775 1-309; P30153 1-589; P63151 1-447) (complex)
